Targets include Pim-2(h) (human, UniProt Q9P1W9 1-311); CDK1/cyclinB(h) (human, UniProt P06493 1-297; P14635 1-433); Src(T341M)(h) (human, UniProt P12931 1-536, limits assumed); IRR(h) (human, UniProt P14616 960-1297, limits assumed); Met(Y1248H)(h) (human, UniProt P08581-2 974-1408, limits assumed); IR(h) (human, UniProt P06213 1005-1310, limits assumed).
What all share (assay): cell-based or functional assay
Another test deals with T1, GCK(h) (human, UniProt Q12851 1-820, limits assumed).
T1 sequence (looked up): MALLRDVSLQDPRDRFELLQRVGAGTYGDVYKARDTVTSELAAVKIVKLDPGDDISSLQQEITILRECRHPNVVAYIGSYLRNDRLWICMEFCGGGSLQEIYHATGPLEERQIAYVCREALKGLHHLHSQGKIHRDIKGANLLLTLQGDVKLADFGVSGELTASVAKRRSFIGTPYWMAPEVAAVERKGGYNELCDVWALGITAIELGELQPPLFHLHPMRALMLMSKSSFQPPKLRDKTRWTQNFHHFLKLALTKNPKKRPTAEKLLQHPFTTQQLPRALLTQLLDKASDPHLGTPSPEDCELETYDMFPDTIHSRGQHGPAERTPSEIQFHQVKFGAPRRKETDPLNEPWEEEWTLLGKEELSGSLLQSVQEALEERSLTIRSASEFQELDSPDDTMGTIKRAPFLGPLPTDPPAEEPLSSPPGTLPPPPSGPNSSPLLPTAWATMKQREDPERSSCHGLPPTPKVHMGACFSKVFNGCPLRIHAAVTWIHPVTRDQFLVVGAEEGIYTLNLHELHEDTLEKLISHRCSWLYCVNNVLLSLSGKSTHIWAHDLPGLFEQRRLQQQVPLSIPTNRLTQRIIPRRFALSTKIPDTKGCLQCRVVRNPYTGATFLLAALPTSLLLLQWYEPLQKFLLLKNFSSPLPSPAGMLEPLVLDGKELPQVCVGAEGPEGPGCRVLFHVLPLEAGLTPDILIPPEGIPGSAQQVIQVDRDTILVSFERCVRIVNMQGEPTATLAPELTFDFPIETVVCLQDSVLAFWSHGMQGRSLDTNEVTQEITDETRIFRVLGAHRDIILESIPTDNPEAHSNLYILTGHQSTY

The target in the next test is T2, PKCζ(h) (human, UniProt Q05513 1-592).
T2 sequence (looked up): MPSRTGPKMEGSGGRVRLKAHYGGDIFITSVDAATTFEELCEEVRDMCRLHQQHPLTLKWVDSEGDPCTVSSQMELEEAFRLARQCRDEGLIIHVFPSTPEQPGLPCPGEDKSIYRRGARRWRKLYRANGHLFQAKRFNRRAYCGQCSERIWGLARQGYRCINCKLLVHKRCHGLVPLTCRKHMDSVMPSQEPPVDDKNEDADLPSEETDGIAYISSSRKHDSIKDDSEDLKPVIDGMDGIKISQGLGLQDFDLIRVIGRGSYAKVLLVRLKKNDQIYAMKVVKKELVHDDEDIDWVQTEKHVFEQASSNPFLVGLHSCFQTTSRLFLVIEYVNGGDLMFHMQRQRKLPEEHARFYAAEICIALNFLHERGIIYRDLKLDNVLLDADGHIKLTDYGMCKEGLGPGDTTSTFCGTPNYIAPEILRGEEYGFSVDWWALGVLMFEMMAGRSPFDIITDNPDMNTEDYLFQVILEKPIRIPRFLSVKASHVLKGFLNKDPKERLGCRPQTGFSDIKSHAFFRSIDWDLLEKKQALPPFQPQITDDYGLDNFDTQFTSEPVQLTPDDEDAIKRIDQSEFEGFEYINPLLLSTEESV

For another test, the target named is T3, PKCι(h) (human, UniProt P41743 1-596).
T3 sequence (looked up): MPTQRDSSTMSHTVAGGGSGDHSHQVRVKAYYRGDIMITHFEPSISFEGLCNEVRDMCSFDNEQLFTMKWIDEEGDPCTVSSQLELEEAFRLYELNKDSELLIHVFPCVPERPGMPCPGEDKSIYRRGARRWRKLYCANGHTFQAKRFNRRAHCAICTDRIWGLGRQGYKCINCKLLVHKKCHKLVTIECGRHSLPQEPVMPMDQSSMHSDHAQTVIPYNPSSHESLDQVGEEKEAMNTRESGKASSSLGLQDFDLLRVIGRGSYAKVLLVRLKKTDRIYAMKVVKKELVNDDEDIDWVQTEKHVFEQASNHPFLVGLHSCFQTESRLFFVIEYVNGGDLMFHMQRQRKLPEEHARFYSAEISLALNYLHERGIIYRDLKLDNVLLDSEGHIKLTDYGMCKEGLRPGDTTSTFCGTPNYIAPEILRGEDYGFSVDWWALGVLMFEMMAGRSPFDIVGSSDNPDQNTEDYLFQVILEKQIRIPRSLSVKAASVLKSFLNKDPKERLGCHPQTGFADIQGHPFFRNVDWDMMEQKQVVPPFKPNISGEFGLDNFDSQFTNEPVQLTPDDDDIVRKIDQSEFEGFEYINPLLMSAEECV

B1: MMI-0300 (peptide)
peptide: FAKLAARLYRKALARQLGVAA
For B1, the “% activity, 100 µM” value stood at 70% with GCK(h); 76% with Pim-2(h); 81% in the test with PKCζ(h); 68% with PKCι(h); 73% in the test with CDK1/cyclinB(h); 70% in the test with Src(T341M)(h). Also, the “% activity, 100 µM” value in the test with IRR(h) is 8%; with Met(Y1248H)(h), 117%; with IR(h), 96%.

B2: MMI-0400 (peptide)
peptide: KAFAKLAARLYRKALARQLGVAA
Regarding B2, the “% activity, 100 µM” value turned out to be 66% in the test with GCK(h); 92% in the test with Pim-2(h); 75% with PKCζ(h); 46% in the test with PKCι(h); 74% with CDK1/cyclinB(h); 76% with Src(T341M)(h). Also, the “% activity, 100 µM” value with IRR(h) stood at 8%; with Met(Y1248H)(h), 63%; with IR(h) it was 85%.

Values taken from US20140072613A1 (published 2014).
